Reference: patent publication US20230212319A1, “NOVEL ANTIGEN BINDING DOMAINS AND SYNTHETIC ANTIGEN RECEPTORS INCORPORATING THE SAME” (University of Southern California, priority 2020, published 2023)

Experiments:
RAJI cells = assay: JNG assay, co-culture with RAJI cells; assay type: cell-based; settings: JNG cells expressing construct, co-culture with Raji
How it was run: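 Jurkat NFAT-GFP (JNG) cells stably transduced with SARs by lentivirus, with drug selection where the construct carried a resistance gene, then co-cultured with target cells at E:T ~1:2 for ~4–18 h. % GFP-positive cells measured by FACS against parental JNG; +/- to 5+ correspond to ~5–50% GFP-positive.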

LNCaP cells = assay: JNG assay, co-culture with LNCaP cells; assay type: cell-based; settings: for NFAT-GFP ASSAY: LNCaP: co-culture with LNCaP; for NFAT-GFP ASSAY: LNCaP with PSMA-USC76-chVH-G4S-ULBP2-S3: LNCaP in presence of SAR adaptor PSMA-USC76-chVH-G4S-ULBP2-S3
How it was run: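 Drug-selected populations of SAR-expressing Jurkat-NFAT-GFP cells meet target cells (about 1:2 E:T) for roughly 4–18 h. Flow cytometry gives % GFP+ cells, graded +/- to 5+ (≈5% to ≈50%) relative to the parental control.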

Molecule	NFAT-GFP ASSAY: Raji (RAJI cells)	NFAT-GFP ASSAY: LNCaP (LNCaP cells)	NFAT-GFP ASSAY: LNCaP with PSMA-USC76-chVH-G4S-ULBP2-S3 (LNCaP cells)
22057 (protein) MALPVTALLLPLALLLHAARPQLQLQESGPGLVKPSETLSLTCTVSGDSISSGDYYWGWIRQPPGKGLEWIGHIYYSGVTYYNPSLKSRVTISVDTSRNQFSLKLSSVTAADTAVYYCTREDSSNWRSRGQGTLVTVSSLEGSEVKTDSTDHVKPKETENTKQPSKSCHKPKAIVHTEKVNMMSLTVLGLRMLFAKTVAVNFLLTAKLFFLRAKRSGSGVKQTLNFDLLKLAGDVESNPGPTSMDWIWRILFLVGAATGAHSFEVQLVESGGGVVQPGRSLRLSCAASGFSFSGYGMHWVRQAPGKGLEWVAYISYDGSNKYYADSVKGRFTISRDNSKNTLYLQMNSLRAEDTAVYYCAKDPAWGLRLGESSSYDFDIWGQGTMVTVSSTRDKTHTCPPCPAGRADCGFTSESYQQGVLSATILYEILLGKATLYAVLVSALVLMAMVKRKDFRAKRSGSGATNFSLLKQAGDVEENPGPSRGHMTEYKPTVRLATRDDVPRAVRTLAAAFADYPATRHTVDPDRHIERVTELQELFLTRVGLDIGKVWVADDGAAVAVWTTPESVEAGAVFAEIGPRMAELSGSRLAAQQQMEGLLAPHRPKEPAWFLATVGVSPDHQGKGLGSAVVLPGVEAAERAGVPAFLETSAPRNLPFYERLGFTVTADVEVPEGPRTWCMTRKPGA	+/- (refer to approximately 5%, 10%, 20%, 30%, 40% and 50% GFP positive cells)	+ (refer to approximately 5%, 10%, 20%, 30%, 40% and 50% GFP positive cells)	–
22058 (protein) MALPVTALLLPLALLLHAARPQLQLQESGPGLVKPSETLSLTCTVSGDSISSGDYYWGWIRQPPGKGLEWIGHIYYSGVTYYNPSLKSRVTISVDTSRNQFSLKLSSVTAADTAVYYCTREDSSNWRSRGQGTLVTVSSLEDLKNVFPPEVAVFEPSEAEISHTQKATLVCLATGFYPDHVELSWWVNGKEVHSGVCTDPQPLKEQPALNDSRYCLSSRLRVSATFWQNPRNHFRCQVQFYGLSENDEWTQDRAKPVTQIVSAEAWGRADCGFTSESYQQGVLSATILYEILLGKATLYAVLVSALVLMAMVKRKDSRGRAKRSGSGATNFSLLKQAGDVEENPGPTSMDWIWRILFLVGAATGAHSFEVQLVESGGGVVQPGRSLRLSCAASGFSFSGYGMHWVRQAPGKGLEWVAYISYDGSNKYYADSVKGRFTISRDNSKNTLYLQMNSLRAEDTAVYYCAKDPAWGLRLGESSSYDFDIWGQGTMVTVSSTRIQNPDPAVYQLRDSKSSDKSVCLFTDFDSQTNVSQSKDSDVYITDKCVLDMRSMDFKSNSAVAWSNKSDFACANAFNNSIIPEDTFFPSPESSCDVKLVEKSFETDTNLNFQNLSVIGFRILLLKVAGFNLLMTLRLWSSRAKRSGSGVKQTLNFDLLKLAGDVESNPGPSRGHMTEYKPTVRLATRDDVPRAVRTLAAAFADYPATRHTVDPDRHIERVTELQELFLTRVGLDIGKVWVADDGAAVAVWTTPESVEAGAVFAEIGPRMAELSGSRLAAQQQMEGLLAPHRPKEPAWFLATVGVSPDHQGKGLGSAVVLPGVEAAERAGVPAFLETSAPRNLPFYERLGFTVTADVEVPEGPRTWCMTRKPGA	+/- (refer to approximately 5%, 10%, 20%, 30%, 40% and 50% GFP positive cells)	+ (refer to approximately 5%, 10%, 20%, 30%, 40% and 50% GFP positive cells)	–
22288 (protein) MALPVTALLLPLALLLHAARPACLFNQEVQIPLTESYCGPCPKNWICYKNNCYQFFDESKNWYESQASCMSQNASLLKVYSKEDQDLLKLVKSAHWMGLVHIPTNGSWQWEDGSILSPNLLTIIEMQKGDCALYASSFKGYIENCSTPNTYICMQRTVLEGQPKANPTVTLFPPSSEELQANKATLVCLISDFYPGAVTVAWKADGSPVKAGVETTKPSKQSNNKYAASSYLSLTPEQWKSHRSYSCQVTHEGSTVEKTVAPTECSPIKTDVITMDPKDNCSKDANDTLLLQLTNTSAYYMYLLLLLKSVVYFAIITCCLLRRTAFCCNGEKSRAKRSGSGATNFSLLKQAGDVEENPGPTSATMDWIWRILFLVGAATGAHSGPQVQLQESGGGLAQAGGSLRLSCAASGRTFSMGWFRQAPGKEREFVAAITYSGGSPYYASSVRGRFTISRDNAKNTVYLQMNSLKPEDTAVYYCAANPTYGSDWNAENWGQGTQVTVSSGSGGGGSGGGGSGGGGSFEDLFNQEVQIPLTESYCGPCPKNWICYKNNCYQFFDESKNWYESQASCMSQNASLLKVYSKEDQDLLKLVKSAHWMGLVHIPTNGSWQWEDGSILSPNLLTIIEMQKGDCALYASSFKGFIENCSTPNTYICMQRTVTRASTKGPSVFPLAPSSKSTSGGTAALGCLVKDYFPEPVTVSWNSGALTSGVHTFPAVLQSSGLYSLSSVVTVPSSSLGTQTYICNVNHKPSNTKVDKRVEPKSCEVKTDSTDHVKPKETENTKQPSKSCHKPKAIVHTEKVNMMSLTVLGLRMLFAKTVAVNFLLTAKLFFLRAKRSGSGVKQTLNFDLLKLAGDVESNPGPSRGHMTEYKPTVRLATRDDVPRAVRTLAAAFADYPATRHTVDPDRHIERVTELQELFLTRVGLDIGKVWVADDGAAVAVWTTPESVEAGAVFAEIGPRMAELSGSRLAAQQQMEGLLAPHRPKEPAWFLATVGVSPDHQGKGLGSAVVLPGVEAAERAGVPAFLETSAPRNLPFYERLGFTVTADVEVPEGPRTWCMTRKPGA	3+ (refer to approximately 5%, 10%, 20%, 30%, 40% and 50% GFP positive cells)	–	+ (refer to approximately 5%, 10%, 20%, 30%, 40% and 50% GFP positive cells)
22055 (protein) MALPVTALLLPLALLLHAARPQLQLQESGPGLVKPSETLSLTCTVSGDSISSGDYYWGWIRQPPGKGLEWIGHIYYSGVTYYNPSLKSRVTISVDTSRNQFSLKLSSVTAADTAVYYCTREDSSNWRSRGQGTLVTVSSLEGSEVKTDSTDHVKPKETENTKQPSKSCHKPKAIVHTEKVNMMSLTVLGLRMLFAKTVAVNFLLTAKLFFLRAKRSGSGVKQTLNFDLLKLAGDVESNPGPTSMDWIWRILFLVGAATGAHSFEVQLVESGGGVVQPGRSLRLSCAASGFSFSGYGMHWVRQAPGKGLEWVAYISYDGSNKYYADSVKGRFTISRDNSKNTLYLQMNSLRAEDTAVYYCAKDPAWGLRLGESSSYDFDIWGQGTMVTVSSTRGSGRADCGFTSESYQQGVLSATILYEILLGKATLYAVLVSALVLMAMVKRKDSRGRAKRSGSGATNFSLLKQAGDVEENPGPSRGHMTEYKPTVRLATRDDVPRAVRTLAAAFADYPATRHTVDPDRHIERVTELQELFLTRVGLDIGKVWVADDGAAVAVWTTPESVEAGAVFAEIGPRMAELSGSRLAAQQQMEGLLAPHRPKEPAWFLATVGVSPDHQGKGLGSAVVLPGVEAAERAGVPAFLETSAPRNLPFYERLGFTVTADVEVPEGPRTWCMTRKPGA	+/- (refer to approximately 5%, 10%, 20%, 30%, 40% and 50% GFP positive cells)	+ (refer to approximately 5%, 10%, 20%, 30%, 40% and 50% GFP positive cells)	–
22286 (protein) MALPVTALLLPLALLLHAARPACLFNQEVQIPLTESYCGPCPKNWICYKNNCYQFFDESKNWYESQASCMSQNASLLKVYSKEDQDLLKLVKSAHWMGLVHIPTNGSWQWEDGSILSPNLLTIIEMQKGDCALYASSFKGYIENCSTPNTYICMQRTVLEGQPKANPTVTLFPPSSEELQANKATLVCLISDFYPGAVTVAWKADGSPVKAGVETTKPSKQSNNKYAASSYLSLTPEQWKSHRSYSCQVTHEGSTVEKTVAPTECSPIKTDVITMDPKDNCSKDANDTLLLQLTNTSAYYMYLLLLLKSVVYFAIITCCLLRRTAFCCNGEKSRAKRSGSGATNFSLLKQAGDVEENPGPTSATMDWIWRILFLVGAATGAHSGPQVQLQESGGGLAQAGGSLRLSCAASGRTFSMGWFRQAPGKEREFVAAITYSGGSPYYASSVRGRFTISRDNAKNTVYLQMNSLKPEDTAVYYCAANPTYGSDWNAENWGQGTQVTVSSGSGGGGSGGGGSGGGGSFEQVQLQQPGAELVKPGASVKMSCKASGYAFSSYWINWMKQKPGQGLEWIGQIYPGDGDTNYNGKFKGRATLTADTSSSTAYMQLSSLTSEDSAVYFCARSITTVVGCAMDYWGQGTSVTVSSTRASTKGPSVFPLAPSSKSTSGGTAALGCLVKDYFPEPVTVSWNSGALTSGVHTFPAVLQSSGLYSLSSVVTVPSSSLGTQTYICNVNHKPSNTKVDKRVEPKSCEVKTDSTDHVKPKETENTKQPSKSCHKPKAIVHTEKVNMMSLTVLGLRMLFAKTVAVNFLLTAKLFFLRAKRSGSGVKQTLNFDLLKLAGDVESNPGPSRGHMTEYKPTVRLATRDDVPRAVRTLAAAFADYPATRHTVDPDRHIERVTELQELFLTRVGLDIGKVWVADDGAAVAVWTTPESVEAGAVFAEIGPRMAELSGSRLAAQQQMEGLLAPHRPKEPAWFLATVGVSPDHQGKGLGSAVVLPGVEAAERAGVPAFLETSAPRNLPFYERLGFTVTADVEVPEGPRTWCMTRKPGA	+ (refer to approximately 5%, 10%, 20%, 30%, 40% and 50% GFP positive cells)	–	+ (refer to approximately 5%, 10%, 20%, 30%, 40% and 50% GFP positive cells)
